According to PMC8515915 (Genome Medicine, 2021):

Target: T1, SARS-CoV-2 RBD wildtype, soluble fragment 319-591 with C-terminal 8 × His tag (SARS-CoV-2, UniProt P0DTC2)
T1 construct: source: ExpiCHO-S, transient, purified (His Trap Excel)
Assay: BLI
Conditions: both partners purified

B1: CB6 (antibody, V domains shown)
VH: EVQLVESGGGLVQPGGSLRLSCAASGFTVSSNYMSWVRQAPGKGLEWVSVIYSGGSTFYADSVKGRFTISRDNSMNTLFLQMNSLRAEDTAVYYCARVLPMYGDYLDYWGQGTLVTVSS
VL: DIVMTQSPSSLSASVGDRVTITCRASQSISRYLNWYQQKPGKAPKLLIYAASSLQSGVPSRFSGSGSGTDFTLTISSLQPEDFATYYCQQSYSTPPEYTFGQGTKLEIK
notes: source: ExpiCHO, heavy and light chain plasmids cotransfected, purified (Protein A)
For B1, the Kd was 10.7 nM.
